Measurements from the supplement of paper PMC9112550, “Optimization of the antimicrobial peptide Bac7 by deep mutational scanning” (BMC Biology, 2022).

test system: Escherichia coli TOP10; experiment: shrunken log2 fold change of peptide-encoding DNA abundance (4.5 h post-induction vs induction); higher = less antimicrobial activity (less host growth inhibition); conditions: time post-induction: 4.5 h; library: site-saturation at positions 5, 18, 19, 20
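Also: peptides expressed intracellularly from a pBAD plasmid library in pooled LB shake-flask culture, induced with 0.3% L-arabinose, DNA abundance read by NGS, three biological replicates, DESeq2 with apeglm shrinkage.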

Row | Sequence | shrunken log2 fold change
1 | RRIRWRPPRLPRPRPRPMQPPRP | 0.185
2 | RRIRSRPPRLPRPRPRPSYFPRP | -0.687
3 | RRIRLRPPRLPRPRPRPTFEPRP | -0.336
4 | RRIRFRPPRLPRPRPRPRTIPRP | -0.219
5 | RRIRWRPPRLPRPRPRPFMQPRP | -0.261
6 | RRIRCRPPRLPRPRPRPTPHPRP | 0.821
7 | RRIRPRPPRLPRPRPRPMLIPRP | -0.553
8 | RRIRIRPPRLPRPRPRPFLIPRP | -0.606
9 | RRIRARPPRLPRPRPRPKIKPRP | 0.0665
10 | RRIRARPPRLPRPRPRPMGWPRP | 0.468
11 | RRIRVRPPRLPRPRPRPENDPRP | -0.0879
12 | RRIRIRPPRLPRPRPRPPFPPRP | 0.141
13 | RRIRKRPPRLPRPRPRPNFIPRP | -0.144
14 | RRIRNRPPRLPRPRPRPPQCPRP | -0.000221
15 | RRIRCRPPRLPRPRPRPVGRPRP | 0.422
16 | RRIRHRPPRLPRPRPRPHENPRP | -0.0891
17 | RRIRLRPPRLPRPRPRPMNPPRP | -0.0817
18 | RRIRPRPPRLPRPRPRPPCFPRP | 0.307
19 | RRIRCRPPRLPRPRPRPPYVPRP | -0.455
20 | RRIRSRPPRLPRPRPRPRARPRP | 0.408
21 | RRIRKRPPRLPRPRPRPGVLPRP | 0.293
22 | RRIRNRPPRLPRPRPRPPQFPRP | 0.334
23 | RRIRNRPPRLPRPRPRPLQRPRP | 0.0374
24 | RRIRKRPPRLPRPRPRPGWSPRP | 3
25 | RRIRFRPPRLPRPRPRPKEHPRP | -0.357

Row | Sequence | shrunken log2 fold change
26 | RRIRYRPPRLPRPRPRPQYTPRP | -1.34
27 | RRIRRRPPRLPRPRPRPYLEPRP | -0.298
28 | RRIRTRPPRLPRPRPRPFFQPRP | 0.0474
29 | RRIRCRPPRLPRPRPRPCAYPRP | -0.153
30 | RRIRTRPPRLPRPRPRPMFSPRP | -0.263
31 | RRIRWRPPRLPRPRPRPTHMPRP | 0.206
32 | RRIRKRPPRLPRPRPRPTRSPRP | 0.831
33 | RRIRRRPPRLPRPRPRPIKPPRP | 0.0148
34 | RRIRDRPPRLPRPRPRPSFWPRP | 0.585
35 | RRIRYRPPRLPRPRPRPALYPRP | -0.284
36 | RRIRVRPPRLPRPRPRPLYRPRP | -0.047
37 | RRIRERPPRLPRPRPRPLGVPRP | -0.171
38 | RRIRKRPPRLPRPRPRPRPNPRP | 0.42
39 | RRIRQRPPRLPRPRPRPQDIPRP | 0.0203
40 | RRIRQRPPRLPRPRPRPQLRPRP | -0.165
41 | RRIRFRPPRLPRPRPRPKPAPRP | 0.739
42 | RRIRPRPPRLPRPRPRPLYPPRP | -0.244
43 | RRIRNRPPRLPRPRPRPYRWPRP | -0.147
44 | RRIRIRPPRLPRPRPRPSEAPRP | -0.0351
45 | RRIRSRPPRLPRPRPRPHKWPRP | -0.296
46 | RRIRRRPPRLPRPRPRPAADPRP | 0.594
47 | RRIRFRPPRLPRPRPRPAHQPRP | -0.15
48 | RRIRYRPPRLPRPRPRPFVGPRP | -0.193
49 | RRIRHRPPRLPRPRPRPAYCPRP | 0.119
50 | RRIRDRPPRLPRPRPRPVKFPRP | 0.284

Row | Sequence | shrunken log2 fold change
51 | RRIRERPPRLPRPRPRPEHAPRP | -0.0115
52 | RRIRNRPPRLPRPRPRPTPAPRP | 0.713
53 | RRIRNRPPRLPRPRPRPDQQPRP | -0.0806
54 | RRIRMRPPRLPRPRPRPKMWPRP | 0.643
55 | RRIRWRPPRLPRPRPRPYLEPRP | -0.112
56 | RRIRKRPPRLPRPRPRPTLYPRP | 0.0394
57 | RRIRRRPPRLPRPRPRPIKAPRP | 0.0673
58 | RRIRCRPPRLPRPRPRPYMRPRP | -0.142
59 | RRIRFRPPRLPRPRPRPIYYPRP | -1.24
60 | RRIRIRPPRLPRPRPRPMRCPRP | -0.0263
61 | RRIRIRPPRLPRPRPRPQMYPRP | -0.211
62 | RRIRGRPPRLPRPRPRPNWWPRP | 3.32
63 | RRIRWRPPRLPRPRPRPDTFPRP | -0.0255
64 | RRIRWRPPRLPRPRPRPNEKPRP | 0.0011
65 | RRIRWRPPRLPRPRPRPVDEPRP | 0.0343
66 | RRIRTRPPRLPRPRPRPRNSPRP | -0.193
67 | RRIRLRPPRLPRPRPRPQIDPRP | 0.0696
68 | RRIRERPPRLPRPRPRPWWVPRP | -0.056
69 | RRIRFRPPRLPRPRPRPTNEPRP | -0.264
70 | RRIRERPPRLPRPRPRPAPHPRP | 0.704
71 | RRIRFRPPRLPRPRPRPFQPPRP | -0.334
72 | RRIRKRPPRLPRPRPRPSLDPRP | 0.183
73 | RRIRIRPPRLPRPRPRPKARPRP | -0.0685
74 | RRIRARPPRLPRPRPRPDCCPRP | 0.172
75 | RRIRARPPRLPRPRPRPFHYPRP | -0.371

Row | Sequence | shrunken log2 fold change
76 | RRIRTRPPRLPRPRPRPLDAPRP | -0.00457
77 | RRIRTRPPRLPRPRPRPYYCPRP | -0.249
78 | RRIRWRPPRLPRPRPRPEHQPRP | 0.263
79 | RRIRQRPPRLPRPRPRPKLPPRP | 0.146
80 | RRIRIRPPRLPRPRPRPRVNPRP | -0.603
81 | RRIRVRPPRLPRPRPRPQMKPRP | -0.0794
82 | RRIRLRPPRLPRPRPRPCDIPRP | -0.0237
83 | RRIRWRPPRLPRPRPRPLAHPRP | 0.29
84 | RRIRLRPPRLPRPRPRPVENPRP | -0.209
85 | RRIRLRPPRLPRPRPRPTEGPRP | 0.166
86 | RRIRPRPPRLPRPRPRPFYVPRP | -0.459
87 | RRIRDRPPRLPRPRPRPNQSPRP | -0.527
88 | RRIRLRPPRLPRPRPRPMVSPRP | -0.0017
89 | RRIRARPPRLPRPRPRPVMSPRP | 0.0513
90 | RRIRLRPPRLPRPRPRPEQKPRP | 0.0115
91 | RRIRMRPPRLPRPRPRPPAMPRP | 1.02
92 | RRIRGRPPRLPRPRPRPWKLPRP | 0.0361
93 | RRIRLRPPRLPRPRPRPNPMPRP | 0.0102
94 | RRIRGRPPRLPRPRPRPGLIPRP | -0.0196
95 | RRIRLRPPRLPRPRPRPPLTPRP | 0.288
96 | RRIRDRPPRLPRPRPRPYDTPRP | -0.0872
97 | RRIRKRPPRLPRPRPRPARLPRP | 0.434
98 | RRIRARPPRLPRPRPRPGNHPRP | -0.0331
99 | RRIRSRPPRLPRPRPRPSDEPRP | -0.673
100 | RRIRWRPPRLPRPRPRPAGVPRP | 0.66

Row | Sequence | shrunken log2 fold change
101 | RRIRGRPPRLPRPRPRPMVIPRP | 0.329
102 | RRIRLRPPRLPRPRPRPVHSPRP | 0.00898
103 | RRIRLRPPRLPRPRPRPYDQPRP | -0.562
104 | RRIRRRPPRLPRPRPRPGAFPRP | 0.539
105 | RRIRFRPPRLPRPRPRPTYMPRP | -0.0541
106 | RRIRHRPPRLPRPRPRPIPDPRP | -0.275
107 | RRIRNRPPRLPRPRPRPKYEPRP | -0.167
108 | RRIRRRPPRLPRPRPRPKEPPRP | 0.293
109 | RRIRQRPPRLPRPRPRPFKKPRP | 0.0942
110 | RRIRKRPPRLPRPRPRPCMQPRP | 0.121
111 | RRIRVRPPRLPRPRPRPNGGPRP | 0.0985
112 | RRIRCRPPRLPRPRPRPIFMPRP | -0.269
113 | RRIRRRPPRLPRPRPRPLLIPRP | 0.145
114 | RRIRQRPPRLPRPRPRPFEWPRP | 0.0112
115 | RRIRHRPPRLPRPRPRPSDDPRP | -0.0349
116 | RRIRGRPPRLPRPRPRPTDNPRP | 0.283
117 | RRIRSRPPRLPRPRPRPNWHPRP | -0.137
118 | RRIRNRPPRLPRPRPRPCYWPRP | -0.345
119 | RRIRIRPPRLPRPRPRPEKHPRP | -0.106
120 | RRIRYRPPRLPRPRPRPKGLPRP | -0.0102
121 | RRIRARPPRLPRPRPRPSRGPRP | 0.497
122 | RRIRMRPPRLPRPRPRPPMMPRP | 0.609
123 | RRIRARPPRLPRPRPRPVSVPRP | 0.137
124 | RRIRPRPPRLPRPRPRPARAPRP | 0.438
125 | RRIRFRPPRLPRPRPRPFRIPRP | -0.687

Row | Sequence | shrunken log2 fold change
126 | RRIRRRPPRLPRPRPRPVKKPRP | 0.0447
127 | RRIRQRPPRLPRPRPRPGYFPRP | 0.0104
128 | RRIRWRPPRLPRPRPRPRERPRP | 0.859
129 | RRIRNRPPRLPRPRPRPHDMPRP | -0.137
130 | RRIRDRPPRLPRPRPRPRTEPRP | 0.0904
131 | RRIRQRPPRLPRPRPRPLRIPRP | 0.116
132 | RRIRRRPPRLPRPRPRPPPHPRP | 0.968
133 | RRIRNRPPRLPRPRPRPEFTPRP | -0.161
134 | RRIRDRPPRLPRPRPRPKHFPRP | -0.15
135 | RRIRQRPPRLPRPRPRPEQEPRP | -0.0311
136 | RRIRKRPPRLPRPRPRPKEPPRP | 0.074
137 | RRIRWRPPRLPRPRPRPWQNPRP | -0.159
138 | RRIRPRPPRLPRPRPRPDSDPRP | 0.0303
139 | RRIRYRPPRLPRPRPRPWVQPRP | -0.544
140 | RRIRERPPRLPRPRPRPARTPRP | 0.0417
141 | RRIRKRPPRLPRPRPRPLTKPRP | 0.457
142 | RRIRRRPPRLPRPRPRPIEDPRP | -0.089
143 | RRIRWRPPRLPRPRPRPSTIPRP | -0.374
144 | RRIRARPPRLPRPRPRPLHDPRP | 0.341
145 | RRIRERPPRLPRPRPRPEWKPRP | 0.0685
146 | RRIRRRPPRLPRPRPRPNYAPRP | 0.0933
147 | RRIRYRPPRLPRPRPRPLSLPRP | -1.1
148 | RRIRARPPRLPRPRPRPDWLPRP | 0.432
149 | RRIRRRPPRLPRPRPRPRHAPRP | 0.746
150 | RRIRHRPPRLPRPRPRPVAYPRP | -0.332
